{"source": "paper PMC2408616", "about": "“Modular Organization and Combinatorial Energetics of Proline–Tyrosine Nuclear Localization Signals” (PLoS Biology, 2008)", "binders": {"B1": {"name": "Kap104p (receptor)", "chain": "MASTWKPAEDYVLQLATLLQNCMSPNPEIRNNAMEAMENFQLQPEFLNYLCYILIEGESDDVLKQHYSLQDLQNNRATAGMLLKNSMLGGNNLIKSNSHDLGYVKSNIIHGLYNSNNNLVSNVTGIVITTLFSTYYRQHRDDPTGLQMLYQLLELTSNGNEPSIKALSKIMEDSAQFFQLEWSGNTKPMEALLDSFFRFISNPNFSPVIRSESVKCINTVIPLQTQSFIVRLDKFLEIIFQLAQNDENDLVRAQICISFSFLLEFRPDKLVSHLDGIVQFMLHLITTVNEEKVAIEACEFLHAFATSPNIPEHILQPYVKDIVPILLSKMVYNEESIVLLEASNDDDAFLEDKDEDIKPIAPRIVKKKEAGNGEDADDNEDDDDDDDDEDGDVDTQWNLRKCSAATLDVMTNILPHQVMDIAFPFLREHLGSDRWFIREATILALGAMAEGGMKYFNDGLPALIPFLVEQLNDKWAPVRKMTCWTLSRFSPWILQDHTEFLIPVLEPIINTLMDKKKDVQEAAISSVAVFIENADSELVETLFYSQLLTSFDKCLKYYKKKNLIILYDAIGRFAEKCALDETAMQIILPPLIEKWALLSDSDKELWPLLECLSCVASSLGERFMPMAPEVYNRAFRILCHCVELEAKSHQDPTIVVPEKDFIITSLDLIDGLVQGLGAHSQDLLFPQGTKDLTILKIMLECLQDPVHEVRQSCFALLGDIVYFFNSELVIGNLEDFLKLIGTEIMHNDDSDGTPAVINAIWALGLISERIDLNTYIIDMSRIILDLFTTNTQIVDSSVMENLSVTIGKMGLTHPEVFSSGAFANDSNWNKWCLSVNALDDVEEKSSAYMGFLKIINLTSTEVTMSNDTIHKIVTGLSSNVEANVFAQEIYTFLMNHSAQISAINFTPDEISFLQQFTS"}}, "assay_in_all_cases": "ITC", "key": {"MBP–Nab2p NLS F236L": {"molecular_target": "T1, MBP–Nab2p NLS F236L (S. cerevisiae, UniProt P32505 201-251, F236L)", "T1 sequence": "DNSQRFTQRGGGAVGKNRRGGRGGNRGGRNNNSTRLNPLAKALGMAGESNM"}, "MBP–Nab2p NLS R235H": {"molecular_target": "T2, MBP–Nab2p NLS R235H (S. cerevisiae, UniProt P32505 201-251, R235 to histidine)", "T2 sequence": "T1 sequence with R35H, L36F"}, "[1]": {"molecular_target": "T3, MBP–Nab2p NLS, all of the arginines mutated to lysines (S. cerevisiae, UniProt P32505 201-251, R218K | R219K | R222K | R226K | R229K)", "T3 sequence": "T1 sequence with R18K, R19K, R22K, R26K, R29K, L36F"}, "MBP–Nab2p NLS R235A": {"molecular_target": "T4, MBP–Nab2p NLS R235A (S. cerevisiae, UniProt P32505 201-251, R235A)", "T4 sequence": "T1 sequence with R35A, L36F"}, "MBP–Nab2p NLS F236A": {"molecular_target": "T5, MBP–Nab2p NLS F236A (S. cerevisiae, UniProt P32505 201-251, F236A)", "T5 sequence": "T1 sequence with L36A"}}, "note": "Numbering of substitutions follows the chain as printed.", "data": [{"binder": "B1", "values": [{"measurement": "Kd", "setting": "MBP–Nab2p NLS F236L", "value": 66, "unit": "nM"}, {"measurement": "Kd", "setting": "MBP–Nab2p NLS R235H", "value": 63, "unit": "nM"}, {"measurement": "Kd", "setting": "[1]", "value": 21, "unit": "nM"}, {"measurement": "Kd", "setting": "MBP–Nab2p NLS R235A", "value": 203, "unit": "nM"}, {"measurement": "Kd", "setting": "MBP–Nab2p NLS F236A", "value": 296, "unit": "nM"}]}]}
